The source of these data is patent US20240189424A1 (published 2024).

A word on the Kd: it is the constant that tells how readily two partners part at equilibrium. Low values mean tighter binding, high ones weaker binding.

Test [1] concerns the target T1, Soluble monomeric B7H6-His (UniProt Q68D85 25-262, limits assumed).
T1 construct: extracellular domain; also called monovalent B7H6; soluble B7H6; not shown: C-terminal Avi-tag and 6xHis-tag
T1 sequence (looked up): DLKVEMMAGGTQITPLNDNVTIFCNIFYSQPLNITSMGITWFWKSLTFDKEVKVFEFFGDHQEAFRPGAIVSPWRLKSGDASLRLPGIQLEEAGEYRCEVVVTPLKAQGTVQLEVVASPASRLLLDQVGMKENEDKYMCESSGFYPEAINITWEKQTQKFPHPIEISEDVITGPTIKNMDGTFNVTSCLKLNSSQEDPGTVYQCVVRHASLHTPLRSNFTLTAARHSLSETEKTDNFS
In words: BLI (Octet RED96), Fc fusion on Protein A tips, monovalent B7H6-His in solution, steady state affinity. The procedure: (§1) BioLayer Interferometry (BLI) measurements of affinity KD were obtained using the ForteBio Octet RED96 system as previously described. Briefly, Protein A-coated biosensor tips were “activated” by incubation with 41 nM TZ47-Fc, NKp30-Fc, or CC3-Fc for 10 min to load tips. Binding to soluble B7H6-His were assessed by allowing TZ47-Fc, NKp30-Fc, or CC3-Fc coated tips to equilibrate in PBS+0.1% Tween-20 (PBST) for 5 min, followed by association steps in 200 μL of each antigen at concentrations ranging from 0 to 3000 nM for 10 min, and dissociation steps in 200 µL of PBST for 5 min. Data was analyzed using Octet® System Data Analysis software.
(§2) Clone CC5, which contains only the consensus S82P mutation, along with CC3, which had two additional amino acid substitutions, were chosen for further characterization. To define binding affinities and kinetics with improved resolution, CC3, CC5, NKp30, and TZ47 sequences were expressed recombinantly as Fc fusion proteins. Affinity to monovalent B7H6 was determined by Biolayer Interferometry (BLI). […] The fast on and off rate profile of NKp30 was maintained in the variants despite the increase in overall affinity.
(In BLI a coated tip is dipped into the sample, and binding shifts an interference pattern.)

For test [2], the target named is T1, Soluble monomeric B7H6-His. In words: BLI, Fc fusion on Protein A tips, monovalent B7H6-His. The procedure:
as §1, §2

In turn, “CC3-Fc (from UniProt O14931 19-135) (Fc fusion)” gave a Kd in test [1] of 680 nM. Further, in test [2], the fold improvement of KD compared to NKp30 turned out to be 2 fold.

B1: CC5-Fc (Fc fusion)
chain: LWVSQPPEIRTLEGSSAFLPCSFNASQGRLAIGSVTWFRDEVVPGKEVRNGTPEFRGRLAPLAPSRFLHDHQAELHIRDVRGHDASIYVCRVEVLGLGVGTGNGTRLVVEKEHPQLG
notes: also called clone CC5; not shown: mouse IgG2a Fc domain
In test [1], B1 registered an equilibrium dissociation constant (Kd) of 580 nM. Moreover, the “fold improvement of KD compared to NKp30” value in test [2] came to 2 fold.

B2: NKp30-Fc (Fc fusion)
chain: LWVSQPPEIRTLEGSSAFLPCSFNASQGRLAIGSVTWFRDEVVPGKEVRNGTPEFRGRLAPLASSRFLHDHQAELHIRDVRGHDASIYVCRVEVLGLGVGTGNGTRLVVEKEHPQLG
notes: Extracellular domain of NKp30 fused to a mouse IgG2a Fc domain, expressed in expi293 HEK cells, bivalent; also called native NKp30; wildtype NKp30; not shown: mouse IgG2a Fc domain
In test [1], B2 had a Kd of 1300 nM.
